The record followed here is paper PMC4150794.

For series [1], the system named is RBPMS2-Nter (Homo sapiens). Kind of series: EMSA. Conditions: theoretical Kd, cooperative fit; 100 nM RNA; second complex at 5 uM; EMSA: 20 mM Tris pH 7.4, 100 mM KCl, 1 mM EDTA, 10 ug/ml BSA, 1 mM DTT, 1 U/ul RNaseOUT, 2% glycerol, 20 C 30 min, 10% gel in 1X TBE at 4 C; anisotropy: 20 mM ….
The test system of another series is Q6ZRY4. Nature of the series: SEC-MALS; Superdex 75 10/300, 20 mM Tris-HCl pH 8, 300 mM NaCl; loaded at 2 mg/ml (RBPMS2-Nter) or 4 mg/ml (RBPMS2-Nter-L49E); monomer to dimer.

In turn, 161-nt NOGGIN RNA registered a Kd in series [1] of 2250 nM.

With “RBPMS2-Nter-L49E (human RBPMS2 residues 27-117 with L49E)”, the “percent of the protein in the monomer peak” value with Q6ZRY4 was “The majority species (92.4%) has a Mw of 10.6 kDa, as would be expected for the monomer”.
